Measured values taken from patent US20210054078A1 (PHARMABCINE, published 2021).
Like-named read-outs stand apart in the source and are kept apart here.

Assays:
[1] = molecular target: T1, mouse PD-L1 on mPD-L1/CHO-K1 overexpressing cells (mouse, UniProt Q9EP73 19-290); assay: flow cytometry on mPD-L1/CHO-K1 cells (sheet label mPD-1/CHO-K1)
T1 construct: whole, on cells; also called mouse PD-L1-expressing cells
Protocol: (§1) For flow cytometry, overexpressing cell lines (hPD-L1/CHO-K1, mPD-L1/CHO-K1), established by introducing human and. mouse PD-L1 genes into CHO-K1 cells, were used. Each cell was maintained and cultured, washed with PBS, suspended in 5 mM EDTA and then recovered through centrifugation. A cell suspension (5×10⁶ cells/ml) was prepared using a FACS-exclusive buffer (containing 2% FBS and PBS 0.05% sodium azide), and was seeded at 100 μl/tube. […] of a test antibody was added at 100 μl to each test tube and then allowed to stand at 4° C. for 30 minutes to induce antibody-cell binding. […] After washing with 2 ml of FACS buffer, 200 μl of FACS buffer was added to suspend the cells. As a positive control group, fluorescence labeling was conducted using FITC-conjugated anti-human PD-L1 antibody (#558065, BD Biosciences) and PE-conjugated anti-mouse […] (#558091, BD Biosciences).
(§2) The cell-binding ability of the optimized anti-PD-L1 antibody was measured through flow cytometry. The experiment was performed in the same manner as in Example 6. […] In order to evaluate binding force, binding kinetics were analyzed using Octet and the binding constant was calculated (Table 7).

[2] = molecular target: T2, human PD-L1 on hPD-L1/CHO-K1 overexpressing cells (human, UniProt Q9NZQ7 19-290); assay: flow cytometry on hPD-L1/CHO-K1 cells (sheet label hPD-1/CHO-K1)
T2 construct: whole, on cells; also called human PD-L1-expressing cells
Protocol: as §1, §2

[3] = molecular target: T3, human PD-L1 (soluble protein of the kinetic measurements) (human, UniProt Q9NZQ7 19-238, limits assumed); assay: BLI (Octet), antibody fixed on biosensor, PD-L1 in solution
T3 construct: kept apart from the His-tag protein of the ELISA; also called hPD-L1
Protocol: (§3) The binding ability of the selected anti-PD-L1 antibody to human or mouse PD-L1 was measured using the Octet system (Fortebio Inc. US). For this purpose, an anti-PD-L1 antibody was fixed on a biosensor, and binding kinetics at each concentration of human or mouse PD-L1 were measured to calculate a binding rate constant (kₐ), a dissociation rate constant (kdis) and a binding constant (KD) (Table 3).
as §2

[4] = molecular target: T4, mouse PD-L1 (soluble protein of the kinetic measurements) (mouse, UniProt Q9EP73 19-238, limits assumed); assay: as above
T4 construct: kept apart from the His-tag protein of the ELISA; also called mPD-L1
Protocol: as §3, §2

[5] = molecular target: T3, human PD-L1 (soluble protein of the …); assay: as above; remark: listed apart in the source
Protocol: as §3

[6] = molecular target: T4, mouse PD-L1 (soluble protein of the …); assay: as above; remark: listed apart in the source
Protocol: as §3

[7] = molecular target: T5, Mouse PD-L1-HisTag (#50010-M08H, Sino Biological Inc.) (mouse, UniProt Q9EP73 19-238); assay: ELISA on coated His-tag mouse PD-L1, OD450-630
T5 construct: Bought protein coated on the ELISA plate; also called mPD-L1; His-tag mouse PD-L1 protein; not shown: His tag

[8] = molecular target: T1, mouse PD-L1 on mPD-L1/CHO-K1 …; assay: flow cytometry, purified IgG on mPD-L1/CHO-K1 cells, PE anti-human IgG-Fc
Protocol: as §1

T4 sequence (Q9EP73 19-238 limits assumed): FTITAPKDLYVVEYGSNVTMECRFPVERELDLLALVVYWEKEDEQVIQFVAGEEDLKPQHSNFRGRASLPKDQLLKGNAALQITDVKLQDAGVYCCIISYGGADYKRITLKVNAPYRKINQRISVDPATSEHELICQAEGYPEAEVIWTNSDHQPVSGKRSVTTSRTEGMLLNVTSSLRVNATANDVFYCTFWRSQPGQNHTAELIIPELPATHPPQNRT
T2 sequence (Q9NZQ7 19-290): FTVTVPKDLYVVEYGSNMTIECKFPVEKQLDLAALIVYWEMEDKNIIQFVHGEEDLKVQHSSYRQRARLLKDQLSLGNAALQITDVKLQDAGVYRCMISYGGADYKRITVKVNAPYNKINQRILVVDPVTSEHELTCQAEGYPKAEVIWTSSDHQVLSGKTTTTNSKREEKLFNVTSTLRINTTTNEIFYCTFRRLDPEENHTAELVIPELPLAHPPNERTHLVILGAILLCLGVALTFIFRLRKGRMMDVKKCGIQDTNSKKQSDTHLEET
T3 sequence (Q9NZQ7 19-238 limits assumed): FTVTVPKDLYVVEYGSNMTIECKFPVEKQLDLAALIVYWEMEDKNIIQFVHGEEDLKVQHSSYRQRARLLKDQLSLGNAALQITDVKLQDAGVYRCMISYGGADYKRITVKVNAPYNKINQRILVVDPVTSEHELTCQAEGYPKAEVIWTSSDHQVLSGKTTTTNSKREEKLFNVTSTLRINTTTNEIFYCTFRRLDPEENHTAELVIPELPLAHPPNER
T1 sequence (Q9EP73 19-290): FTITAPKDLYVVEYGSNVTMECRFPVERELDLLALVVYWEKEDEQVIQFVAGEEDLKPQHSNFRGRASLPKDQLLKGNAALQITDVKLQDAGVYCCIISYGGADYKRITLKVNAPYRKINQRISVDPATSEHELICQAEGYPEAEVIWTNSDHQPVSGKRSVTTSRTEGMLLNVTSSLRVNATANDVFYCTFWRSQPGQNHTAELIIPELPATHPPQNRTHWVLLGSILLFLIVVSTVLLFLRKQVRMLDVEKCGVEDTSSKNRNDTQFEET
T5 sequence (Q9EP73 19-238 limits assumed, stated change not applied): as the sequence (Q9EP73 19-238 limits assumed) above

Row | Binder | % Gated in M1 [1] [%] | Geo Mean in M1 [1] | Geo Mean, all events [1] | Mean in M1 [1] | Mean, all events [1] | % Gated in M1 [2] [%] | Geo Mean in M1 [2] | Geo Mean, all events [2] | Mean in M1 [2] | Mean, all events [2] | koff [3] [s⁻¹] | kon [3] [M⁻¹ s⁻¹] | Kd [4] [nM] | koff [4] [s⁻¹] | kon [4] [M⁻¹ s⁻¹] | Kd [3] [nM] | other results
1 | ME4 anti-PD-L1 antibody (IgG form) (antibody, V domains shown, Converted to IgG with the vectors pIgGHD-6A6Hvy and pIgGLD-6A6Lgt; Expressed in Expi293F cells) VH: QVQLVESGAEVKKPGSSVKVSCKASGGTFNNYAVSWVRQAPGQGLEWMGRIIPILGIANYAQTFQGRVTITADKSTTTAYMELSSLRSEDTAVYYCARSYSGYAEGAFDIWGQGTMVTVSS VL: QFVLTQPPSVSGAPGQRVTISCTGSSSNIGAGYDVHWYQQLPGTAPKVLIYGNSDRPSGVPDRFSGSKSGTSASLAITGLQGEDKATYYCQSYDSRLSGPVFGTGTKVTVLG | 28.8 | 20 | 10.4 | 20.6 | 12.3 | 83.2 | 34.4 | 27.8 | 38.3 | 33.6 | 0.000324 | 188000 | 37.4 | 0.00211 | 56300 |  | Kd [5]: 1.72 nM; koff [5]: 0.000324 s⁻¹; kon [5]: 188000 M⁻¹ s⁻¹; Kd [6]: 37.4 nM; koff [6]: 0.00211 s⁻¹; kon [6]: 56300 M⁻¹ s⁻¹
2 | ME4.A2 anti-PD-L1 antibody (IgG form) (antibody, V domains shown) VH: QVQLVESGAEVKKPGSSVKVSCKASGGTFNNYAVSWVRQAPGQGLEWMGRIIPILGIANYAQTFQGRVTITADKSTTTAYMELSSLRSEDTAVYYCARSSRGYAHGAFDIWGQGTMVTVSS VL: QFVLTQPPSVSGAPGQRVTISCTGSSSNIGAGYDVHWYQQLPGTAPKVLIYGNSDRPSGVPDRFSGSKSGTSASLAITGLQGEDKATYYCQSYDSRLSGPVFGTGTKVTVLG | 51 | 19.1 | 10.8 | 20.3 | 13.8 | 72.4 | 29.1 | 20.7 | 33 | 26.4 | 1.02e-05 | 174000 | 3.01 | 0.000986 | 328000 | 0.0586 | 
3 | ME4.A11 anti-PD-L1 antibody (IgG form) (antibody, V domains shown) VH: QVQLVESGAEVKKPGSSVKVSCKASGGTFNNYAVSWVRQAPGQGLEWMGRIIPILGIANYAQTFQGRVTITADKSTTTAYMELSSLRSEDTAVYYCARSRGGYAHGAFDIWGQGTMVTVSS VL: QFVLTQPPSVSGAPGQRVTISCTGSSSNIGAGYDVHWYQQLPGTAPKVLIYGNSDRPSGVPDRFSGSKSGTSASLAITGLQGEDKATYYCQSYDSRLSGPVFGTGTKVTVLG | 9.44 | 14.2 | 5.55 | 14.5 | 6.63 | 52.6 | 19.4 | 12.1 | 21 | 14.7 | 0.000109 | 118000 | 4.86 | 0.000626 | 129000 | 0.918 | 
4 | ME4.A12 anti-PD-L1 antibody (IgG form) (antibody, V domains shown) VH: QVQLVESGAEVKKPGSSVKVSCKASGGTFNNYAVSWVRQAPGQGLEWMGRIIPILGIANYAQTFQGRVTITADKSTTTAYMELSSLRSEDTAVYYCARSHWGYAHGAFDIWGQGTMVTVSS VL: QFVLTQPPSVSGAPGQRVTISCTGSSSNIGAGYDVHWYQQLPGTAPKVLIYGNSDRPSGVPDRFSGSKSGTSASLAITGLQGEDKATYYCQSYDSRLSGPVFGTGTKVTVLG | 7.31 | 14.2 | 5.39 | 14.4 | 6.38 | 44.6 | 18.4 | 10.6 | 19.7 | 12.9 | 2.2e-05 | 165000 | 2.65 | 0.000817 | 308000 | 0.134 | 
5 | ME4.B10 anti-PD-L1 antibody (IgG form) (antibody, V domains shown) VH: QVQLVESGAEVKKPGSSVKVSCKASGGTFNNYAVSWVRQAPGQGLEWMGRIIPILGIANYAQTFQGRVTITADKSTTTAYMELSSLRSEDTAVYYCARSARGYAHGAFDIWGQGTMVTVSS VL: QFVLTQPPSVSGAPGQRVTISCTGSSSNIGAGYDVHWYQQLPGTAPKVLIYGNSDRPSGVPDRFSGSKSGTSASLAITGLQGEDKATYYCQSYDSRLSGPVFGTGTKVTVLG | 18.1 | 15 | 6.41 | 15.4 | 7.85 | 50.3 | 19.4 | 11.5 | 21 | 14.2 | ~2.42e-05 | 145000 | 1.62 | 0.000422 | 260000 | 0.167 | 
6 | ME4.B12 anti-PD-L1 antibody (IgG form) (antibody, V domains shown) VH: QVQLVESGAEVKKPGSSVKVSCKASGGTFNNYAVSWVRQAPGQGLEWMGRIIPILGIANYAQTFQGRVTITADKSTTTAYMELSSLRSEDTAVYYCARSSFGYSVGAFDIWGQGTMVTVSS VL: QFVLTQPPSVSGAPGQRVTISCTGSSSNIGAGYDVHWYQQLPGTAPKVLIYGNSDRPSGVPDRFSGSKSGTSASLAITGLQGEDKATYYCQSYDSRLSGPVFGTGTKVTVLG | 27.2 | 16.1 | 7.13 | 16.6 | 9.1 | 81.6 | 29.2 | 22.5 | 33.8 | 28.9 | 3.19e-06 | 164000 | 1.22 | 0.000379 | 310000 | 0.0194 | 
7 | 1G1 anti-PD-L1 antibody (IgG form) (antibody, V domains shown, Converted to IgG with the vectors pIgGHD-6A6Hvy and pIgGLD-6A6Lgt; Expressed in Expi293F cells; also called IG1) VH: QVQLVESGGGLVQPGRSLRLSCAASGFTFDDYAMHWVRQAPGKGLEWVSGISWNSGSIGYADSVKGRFTISRDNAKNSLYLQMNSLRAEDTAVYYCAKPRDISSWLGMDVWGQGTTVTVSS VL: DIQMTQSPSSVSASVGDRVTITCRASQDISSWLAWYQQKPGKAPKLLIYAASSLQSGVPSRFSGSGSGTDFTLTISSLQPEDSATYYCQQTNNFPYTFGQGTKLEIKR |  |  |  |  |  |  |  |  |  |  |  |  |  |  |  |  | binding result [7]: no binding; binding result [8]: no binding; Kd [5]: 0.629 nM; koff [5]: 0.000146 s⁻¹; kon [5]: 232000 M⁻¹ s⁻¹
